Assay results taken from the supplement of paper PMC7125110.
± gives the standard error. Fewer inactive variants are shown than the library holds.

B1: glmS ribozyme (parent)
chain: AUAAAAGCGCCAGAACUACAGAAAUGUAGUUGACGAGGAGGAGGUUUAUCGAAUUUUCGGCGGAUGCCUCCAAA

Variants of: B1
Assay: self-cleavage kobs at 10000 uM GlcN6P; higher = faster cleavage; RNA array
Conditions: with glucosamine-6-phosphate
Method in brief: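 In situ transcription by E. coli RNA polymerase produced barcoded ribozyme variants on sequenced MiSeq chips, and a hybridised Cy3 probe tracked them at 37 °C. Glucosamine-6-phosphate was flowed in at 40 μM to 10 mM in HEPES/KCl/Mg(OAc)2 buffer. kcat and KM were taken from weighted Michaelis–Menten fits of kobs values from exponential decay fits.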

Question: AUAAAAGCGCCAGAACUACAGAAAUGUAGUUGACGAGGAGGGGGUAUAUCGAAUUUUCGGCGGGUGCCUCCAAA was tested. Which “self-cleavage kobs at 10000 uM GlcN6P” value did it give?
Answer: 0.00462 ± 0.0009 s⁻¹

Question: AUAAAAGCGCCAGAACUACAGAAAUGUAGUUGACGAGGAGGAGGAUUAUCGAAUUAUCGGCGGAUGCCUCCAAA was tested. Which “self-cleavage kobs at 10000 uM GlcN6P” value did it give?
Answer: 0.0179 ± 0.0079 s⁻¹

Question: For AUAAAAGCGCCAGAACUACAGAAAUGUAGUUGACGAGGAGGAGAUUUAUCGAAUUUUAGGCGGAUGUCUCCAAA, which “self-cleavage kobs at 10000 uM GlcN6P” value is on record?
Answer: 0.000308 ± 6.5e-05 s⁻¹

Question: With AUAAAAGCGCCAGAACUACAGAAAUGUAGUUGACGAGGAGGAGGAUUAUCGAAAUUUCGGCGGAUGCCUACAAA as the variant, how does the “self-cleavage kobs at 10000 uM GlcN6P” value read?
Answer: 8.25e-05 ± 1.9e-05 s⁻¹

Question: How did the “self-cleavage kobs at 10000 uM GlcN6P” value turn out when AUAAAAGCGCCAGAACUACAGAAAUGUAGUUGACGAGGAGGAAGUUUAUCUAAUUUUCGGCGCAUGCCUCCAAA was run?
Answer: < 1e-05 s⁻¹

Question: With AUAAAAGCGCCAGAACUACAGAAAUGUAGUUGACGAGGAGGAGCUUUAUCGAAUUUUCGGCGGAUGCCUUAAAA as the variant, how does the “self-cleavage kobs at 10000 uM GlcN6P” value read?
Answer: < 1e-05 s⁻¹

Question: With AUAAAAGCGCCAGAACUACAGAAAUGUAGUUGACGAGGAGGAGCUUUAUCGAAUUUUCGGCGGAGGUCUCCAAA as the variant, how does the “self-cleavage kobs at 10000 uM GlcN6P” value read?
Answer: 0.000247 ± 8.5e-05 s⁻¹

Question: AUAAAAGCGCCAGAACUACAGAAAUGUAGUUGACGAGGAGGAUGUUUAUUGAAUUUUCGGCGAAUGCCUCCAAA was tested. Which “self-cleavage kobs at 10000 uM GlcN6P” value did it give?
Answer: < 1e-05 s⁻¹

Question: AUAAAAGCGCCAGAACUACAGAAAUGUAGUUGACGAGGAGGAGGUCUAACGAAUUUUCGGCGGAUGCCUCCAAA was tested. Which “self-cleavage kobs at 10000 uM GlcN6P” value did it give?
Answer: < 1e-05 s⁻¹

Question: AUAAAAGCGCCAGAACUACAGAAAUGUAGUUGACGAGGAAGAGGUUUAUCUAAUUUUCGGCGGAUGCUUCCAAA was tested. Which “self-cleavage kobs at 10000 uM GlcN6P” value did it give?
Answer: < 1e-05 s⁻¹

Question: With AUAAAAGCGCCAGAACUACAGAAAUGUAGUUGACGAGGUGGAGGUUUAUCGAAUUUUCGGCGGAUUACUCCAAA as the variant, how does the “self-cleavage kobs at 10000 uM GlcN6P” value read?
Answer: 0.00316 ± 0.00061 s⁻¹

Question: With AUAAAAGCGCCAGAACUACAGAAAUGUAGUUGACGAGGAGGCGCUUUAUCUAAUUUUCGGCGGAUACCUCCAAA as the variant, how does the “self-cleavage kobs at 10000 uM GlcN6P” value read?
Answer: < 1e-05 s⁻¹

Question: For AUAAAAGCGCCAGAACUACAGAAAUGUAGUUGACGAGGAGGGGGUUUAUCGAAUUUUGGGCGGAUACCUCCAAA, which “self-cleavage kobs at 10000 uM GlcN6P” value is on record?
Answer: 5.14e-05 ± 1.9e-05 s⁻¹

Question: For AUAAAAGCGCCAGAACUACAGAAAUGUAGUUGACGAGGAGGAGGUUCAUCGAUUUUUCGGCGGAUGCGUCCAAA, which “self-cleavage kobs at 10000 uM GlcN6P” value is on record?
Answer: 3.22e-05 ± 1.4e-05 s⁻¹

Question: With AUAAAAGCGCCAGAACUACAGAAAUGUAGUUGACGAGGACGAUGUUUAUCUAAUUUUCGGCGGAUGCCUCCAAA as the variant, how does the “self-cleavage kobs at 10000 uM GlcN6P” value read?
Answer: < 1e-05 s⁻¹

Question: With AUAAAAGCGCCAGAACUACAGAAAUGUAGUUGACGAGGAGGAGUUUUAUCGAAUUUUCGGCGGAAGCCUCCAAA as the variant, how does the “self-cleavage kobs at 10000 uM GlcN6P” value read?
Answer: 5.28e-05 ± 1.3e-05 s⁻¹

Question: Which “self-cleavage kobs at 10000 uM GlcN6P” value does the source give for AUAAAAGCGCCAGAACUACAGAAAUGUAGUUGACGAGGACGAGGUUUAUCGAGUUUUCGGCGGAUCCCUCCAAA here?
Answer: 0.000137 ± 2.8e-05 s⁻¹

Question: How did the “self-cleavage kobs at 10000 uM GlcN6P” value turn out when AUAAAAGCGCCAGAACUACAGAAAUGUAGUUGACGAGGAGGAGGUUGAUCGAAUUUUCAGCGGAUGCCUCCAAA was run?
Answer: 3.68e-05 ± 1.3e-05 s⁻¹

Question: With AUAAAAGCGCCAGAACUACAGAAAUGUAGUUGACGAGGAGGAGGUUUCUCGAAUUUUAGGUGGAUGCCUCCAAA as the variant, how does the “self-cleavage kobs at 10000 uM GlcN6P” value read?
Answer: < 1e-05 s⁻¹

Question: Which “self-cleavage kobs at 10000 uM GlcN6P” value does the source give for AUAAAAGCGCCAGAACUACAGAAAUGUAGUUGACGAGGUGGAGGUUUAUCGAAUUUUCGGCGUAAGCCUCCAAA here?
Answer: < 1e-05 s⁻¹

Question: AUAAAAGCGCCAGAACUACAGAAAUGUAGUUGACGAGGAGGAGAUAUAUCGAAUUUUCGGCGGAUGCCUCCAAA was tested. Which “self-cleavage kobs at 10000 uM GlcN6P” value did it give?
Answer: 0.000375 ± 6.2e-05 s⁻¹

Question: Which “self-cleavage kobs at 10000 uM GlcN6P” value does the source give for AUAAAAGCGCCAGAACUACAGAAAUGUAGUUGACGAGGUGGAGGUUUAUCGGAUUUUCGGCGGAUGGCUCCAAA here?
Answer: 0.00016 ± 3.6e-05 s⁻¹

Question: How did the “self-cleavage kobs at 10000 uM GlcN6P” value turn out when AUAAAAGCGCCAGAACUACAGAAAUGUAGUUGACGAGGUGGAGGUUUAUCGAAUUUUCGGCGGAUGACUUCAAA was run?
Answer: 0.00654 ± 0.0014 s⁻¹

Question: For AUAAAAGCGCCAGAACUACAGAAAUGUAGUUGACGAGGGGGAGGUUUAUCGAAUUUUCGCCGGAUGCCUUCAAA, which “self-cleavage kobs at 10000 uM GlcN6P” value is on record?
Answer: < 1e-05 s⁻¹

Question: For AUAAAAGCGCCAGAACUACAGAAAUGUAGUUGACGAGGAGGAGGUUUGUCGAAUUUUUGGCGGUUGCCUCCAAA, which “self-cleavage kobs at 10000 uM GlcN6P” value is on record?
Answer: < 1e-05 s⁻¹

Question: For AUAAAAGCGCCAGAACUACAGAAAUGUAGUUGACGAGGGGGAGGUUUAGCGAAUUUUCGGCGGAUGCCUCCAAA, which “self-cleavage kobs at 10000 uM GlcN6P” value is on record?
Answer: 0.000904 ± 0.00021 s⁻¹

Question: AUAAAAGCGCCAGAACUACAGAAAUGUAGUUGACGAGGAGGAGGUUAAUCGAAUUUUCGGCGGAUGUCUCUAAA was tested. Which “self-cleavage kobs at 10000 uM GlcN6P” value did it give?
Answer: 0.000453 ± 0.00017 s⁻¹

Question: AUAAAAGCGCCAGAACUACAGAAAUGUAGUUGACGAGGAGGAGGUGUAUCGAAUUUUCGGGGAAUGCCUCCAAA was tested. Which “self-cleavage kobs at 10000 uM GlcN6P” value did it give?
Answer: < 1e-05 s⁻¹

Question: For AUAAAAGCGCCAGAACUACAGAAAUGUAGUUGACGAGGAGGAGGUUUUUCGGAUAUUCGGCGGGUGCCUCCAAA, which “self-cleavage kobs at 10000 uM GlcN6P” value is on record?
Answer: 4.66e-05 ± 1.1e-05 s⁻¹

Question: For AUAAAAGCGCCAGAACUACAGAAAUGUAGUUGACGAGGGGGAGGUUUAUCGAAUUUUCGGCGGAGGCCUUCAAA, which “self-cleavage kobs at 10000 uM GlcN6P” value is on record?
Answer: 0.0203 ± 0.0059 s⁻¹

Question: For AUAAAAGCGCCAGAACUACAGAAAUGUAGUUGACGAGGAGGGGGUUUUUCGAAUGUUCGGCGGAUGCCUCCAAA, which “self-cleavage kobs at 10000 uM GlcN6P” value is on record?
Answer: 0.000404 ± 8.1e-05 s⁻¹

Question: How did the “self-cleavage kobs at 10000 uM GlcN6P” value turn out when AUAAAAGCGCCAGAACUACAGAAAUGUAGUUGACGAGGAGGAGGUAUAUAGAAUUUUCUGCGGAUGCCUCCAAA was run?
Answer: < 1e-05 s⁻¹

Question: AUAAAAGCGCCAGAACUACAGAAAUGUAGUUGACGAGGAGGGGGUUUAAGGAAUUUUCGGCGGAUGCCUCCAAA was tested. Which “self-cleavage kobs at 10000 uM GlcN6P” value did it give?
Answer: < 1e-05 s⁻¹

Question: With AUAAAAGCGCCAGAACUACAGAAAUGUAGUUGACGAGGAGGAGUUUUAUCGAAUUUUUGGCUGAUGCAUCCAAA as the variant, how does the “self-cleavage kobs at 10000 uM GlcN6P” value read?
Answer: < 1e-05 s⁻¹

Question: AUAAAAGCGCCAGAACUACAGAAAUGUAGUUGACGAGGAGGAGGGUUAUCGAAUUUGCGGCGGAUGCCUCCAAA was tested. Which “self-cleavage kobs at 10000 uM GlcN6P” value did it give?
Answer: 3.68e-05 ± 9e-06 s⁻¹

Question: With AUAAAAGCGCCAGAACUACAGAAAUGUAGUUGACGAGGAGGAGGUUAAUCGAAGAUUCGGCGGAUGCCUACAAA as the variant, how does the “self-cleavage kobs at 10000 uM GlcN6P” value read?
Answer: 0.000105 ± 3e-05 s⁻¹

Question: AUAAAAGCGCCAGAACUACAGAAAUGUAGUUGACGAGGAGAAGGUUUAUCGAAUUUUCGGAGGAUGCGUCCAAA was tested. Which “self-cleavage kobs at 10000 uM GlcN6P” value did it give?
Answer: < 1e-05 s⁻¹
